Blank lines part the entries; values can stand above or below the substance they belong to.
What was measured:
[1] = biological target: AncSR1-LBD 184E (dimerization-interface mutant with a non-historical charge-repulsion mutation); assay: native MS
[2] = biological target: AncSR1-LBD L180F/A181Y/M185K (dimerization-interface mutant with three historical substitutions); assay: native MS
[3] = biological target: AncSR1-LBD fused to the CTE of AncSR2-LBD; assay: SEC-MALS

fold increase of Kd against AncSR1-LBD [1]: > 20 fold
Substance: AncSR1-LBD 184E (dimerization-interface mutant with a non-historical charge-repulsion mutation) (domain or fragment)

fold increase of Kd against AncSR1-LBD [2]: > 20 fold
Substance: AncSR1-LBD L180F/A181Y/M185K (dimerization-interface mutant with three historical substitutions) (domain or fragment)

stoichiometry N [3]: 2
Substance: AncSR1-LBD fused to the CTE of AncSR2-LBD (domain or fragment)

From article PMC8168016
